Test results as given in patent publication US20110301332A1 (CEPHALON AUSTRALIA VIC, published 2011).
No end group written: not given here.

T1: biotinylated human PAMP (biotinylated to an added N-terminal cysteine) (human, not fully specified; biotin on the added N-terminal cysteine; C-terminal amide)
T1 construct: also called biotin-PAMP; biotinylated human full-length PAMP
T1 peptide: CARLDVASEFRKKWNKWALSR

B1: human PAMP (8-20) (peptide)
peptide: EFRKKWNKWALSR
modifications: ends and bridges not checked
notes: also called N-terminally truncated human PAMP, residues 8-20
B2: human PAMP (10-20) (peptide)
peptide: RKKWNKWALSR
modifications: ends and bridges not checked
notes: also called N-terminally truncated human PAMP, residues 10-20
B3: human PAMP (13-20) (peptide)
peptide: WNKWALSR
modifications: ends and bridges not checked
notes: also called N-terminally truncated human PAMP, residues 13-20; C-terminal-most 8 residues of PAMP
B4: human PAMP (12-20) (peptide)
peptide: KWNKWALSR
modifications: not fully specified (C-terminus); ends and bridges not checked
notes: also called N-terminally truncated human PAMP, residues 12-20
B5: monoclonal antibody EGX-P-E9 (antibody, V domains shown)
VH: EVQLQQSGAELVRSGASVKLSCTASGFNIKDYYIHWVKQGPEQGLEWVGYIDPENGETAYAPKFQGKATLTADTSSNTAYLQLISLTSEDTAVYYCNAPYFSLGRNYWGQGTTLTVSS
VL: NVLMTQTPLSLPVSLGDQASISCRSSQSIVHGNGDTYLEWYLQKPGQSPKLLIYKVSNRFSGVPDRFSGSGSGTDFTLKIRRVEAEDLGVYYCFQGSHVPLTFGAGTKLELK
notes: Mouse IgG purified from hybridoma medium with Protein G; also called anti-PAMP EGX-P-E9 IgG; antibody of hybridoma clone PTA-7958
B6: native (non-biotinylated) human PAMP (peptide)
peptide: ARLDVASEFRKKWNKWALSR-NH2
notes: also called human full length PAMP; hum FL

Assays:
[1] = target: B5; experiment: competitive ELISA: EGX-P-E9-coated wells, 10 nM biotinylated human full-length PAMP plus 1 µM (100x) unlabeled competitor peptide, streptavidin-peroxidase, OD
Description: (§1) The activity of the purified monoclonal antibody EGX-P-E9 was examined by ELISA (Enzyme Linked Immunosorbent Assay, FIG. 1). Wells of a 96-well microtiter plate were coated with 5 μg/ml anti-PAMP EGX-P-E9 IgG diluted in PBS for several hours. After washing wells with PBS, the coated wells were then incubated with a skim milk-PBS solution (Milk/PBS) to block non-specific antigen-binding. To determine the EC50, an estimate of the dissociation constant, various concentration (12 μM to 2 μM in Milk/PBS) of biothinylated human PAMP (biotinylated to an added N-terminal cysteine) was incubated in EGX-P-E9-coated wells. After washing wells with PBS+0.05% Tween 20 (PBST), the EGX-P-E9-biotin-PAMP complex was captured by the streptavidin-peroxidase conjugate and quantified by measuring the A450 using the peroxidase substrate TMB fluorescent reagent (Sigma Aldrich) and Benchmark microplate reader (BioRad).
The specificity of anti-PAMP EGX-P-E9 was also tested by ELISA with competitor PAMP peptides (FIG. 2). Antibody EGX-P-E9-coated wells were loaded with 10 nM biotinylated human full-length PAMP in Milk/PBS supplemented with one hundred fold excess (1 μM) of the following unlabeled competitor PAMP peptides: Rat PAMP, mouse PAMP, human full length PAMP (hum FL), and various N-terminally truncated human PAMPs (containing only residues 8-20, 10-20, 12-20 or 13-20). Quantification of the EGX-P-E9-biotin-PAMP complex was done as described above.

[2] = target: B3; experiment: competition ELISA with truncated PAMP peptides
Description: as §1
The specificity of anti-PAMP EGX-P-E9 was also tested by ELISA with competitor PAMP peptides (FIG. 2). […] Quantification of the EGX-P-E9-biotin-PAMP complex was done as described above.

[3] = target: T1, biotinylated human PAMP (biotinylated …); experiment: ELISA, antibody-coated wells, titration of biotinylated human PAMP, streptavidin-peroxidase detection
Description: as §1

[4] = target: B5; experiment: competition ELISA, non-biotinylated PAMP against 6.2 nM biotinylated PAMP on EGX-P-E9-coated wells
Description: as §1
To confirm the affinity for PAMP, IC50 values were determined by competing the binding of the EGX-P-E9 antibody to the biotinylated PAMP with native (non-biotinylated) human PAMP. […] After washing the wells with PBST, the EGX-P-E9-biotin-PAMP complex was detected using the streptavidin-peroxidase conjugate and quantified by measuring the A450 using the peroxidase substrate TMB fluorescent reagent (Sigma Aldrich) and Benchmark microplate reader (BioRad) as above.

binding result [1] | Binder | further results
binds | AGPDTPSQFRKKWNKWALSR-NH2 [mouse PAMP] | –
binds | B1 | –
binds | B2 | –
binds | B3 | –
binds | B4 | –
– | B5 | binding result [2]: binds; EC50 [3]: 6.2 nM
– | B6 | IC50 [4]: 4 nM
binds | ARLDTSSQFRKKWNKWALSR-NH2 [Rat PAMP] | –
